Strand notation (5' to 3'): a small letter for the sugar, then the base; units joined by * are phosphorothioate-linked, units joined directly phosphodiester-linked; [ ] holds rarer units or linkages, { } end groups; capitals alone tell only the bases. m = 2'-O-methyl; r = 2'-OH (RNA)
Legend:
[1] = tested on: human TTR; assay: Serum human TTR ELISA in humanized TTR mice (Table 26); type: in vivo, mouse; settings: for Serum TTR(% TSS): Table 26, serum human TTR, LNP Formulation Numbers 6-16, 1 mg/kg (total RNA content)
Description: Blood was collected and the serum was isolated as indicated. The total mouse TTR serum levels were determined using a Mouse Prealbumin (Transthyretin) ELISA Kit (Aviva Systems Biology, Cat. OKIA00111); rat TTR serum levels were measured using a rat specific ELISA kit (Aviva Systems Biology catalog number OKIA00159); human TTR serum levels were measured using a human specific ELISA kit (Aviva Systems Biology catalog number OKIA00081); each according to manufacture's protocol. Briefly, sera were serial diluted with kit sample diluent to a final dilution of 10,000-fold, or 5,000-fold when measuring human TTR in mouse sera. 100 ul of the prepared standard curve or diluted serum samples were added to the ELISA plate, incubated for 30 minutes at room temperature then washed 3 times with provided wash buffer. 100 uL of detection antibody was then added to each well and incubated for 20 minutes at room temperature followed by 3 washes. 100 uL of substrate is added then incubated for 10 minutes at room temperature before the addition of 100 uL stop solution. The absorbance of the contents was measured on the Spectramax M5 plate reader with analysis using SoftmaxPro version 7.0 software. Serum TTR levels were quantitated off the standard curve using 4 parameter logistic fit and expressed as ug/mL of serum or percent knockdown relative control (vehicle treated) animals.
The level of human TTR in serum was measured in the mice provided formulation numbers 6-8, 10-13, and 15-16. FIG. 14A is a repeat of FIG. 13 provided for comparison purposes. Knockdown of serum human TTR was detected for each formulation tested, which correlated with the amount of editing detected in liver (See FIG. 14A vs 14B, Table 26).
In another set of experiments, humanized TTR mice were dosed with LNP formulations across a range of doses with guides G000480, G000488, G000489 and G000502. The formulations contained Cas9 mRNA (SEQ ID NO: 1) in a 1:1 ratio by weight to the guide. The LNPs contained Lipid A, Cholesterol, DSPC, and PEG2k-DMG in a 50:38:9:3 molar ratio, respectively, and having a N:P ratio of 6. Dosing was at 1, 0.3, 0.1, or 0.03 mg/kg (n=5/group). The LNPs were prepared using the cross-flow procedure described above and purified and concentrated using PD-10 columns and Amicon centrifugal filter units, respectively. Liver editing results were determined using primers designed to amplify the region of interest for NGS analysis and serum human TTR levels were measured as described above. Results for liver editing are shown in FIG. 26A and serum human TTR levels in FIG. 26B-C.
(§1) In another set of experiments, humanized TTR mice were dosed with LNP formulations across a range of doses with guides G000481, G000482, G000486 and G000499. The formulations contained Cas9 mRNA (SEQ ID NO: 1) in a 1:1 ratio by weight to the guide. […] Dosing was at 1, 0.3, or 0.1 mg/kg (n=5/group). The LNPs were prepared using the cross-flow procedure described above and purified and concentrated using PD-10 columns and Amicon centrifugal filter units, respectively. Liver editing results were determined using primers designed to amplify the region of interest for NGS analysis and serum human TTR levels were measured as described above. Results for liver editing are shown in FIG. 27A and serum human TTR levels in FIG. 27B-C.
as §1, with “guides G000480,” for “guides”, “G000486, G000499” for “G000482, G000486”, “G000502.” for “G000499.”, “1:2” for “1:1”, “Results for liver editing are shown in FIG. 27A and serum human TTR levels in FIG. 27B-C.” left out

[2] = tested on: human TTR sequence; assay: Liver editing in humanized TTR mice dosed with LNP formulations (Table 26); type: in vivo, mouse
[3] = 1, 0.3, or 0.1 mg/kg, Cas9 mRNA (SEQ ID NO: 1) 1:1 by weight to guide, FIG. 27B-C
[4] = 1, 0.3, or 0.1 mg/kg, Cas9 mRNA (SEQ ID NO: 1) 1:1 by weight to guide, FIG. 27A
[5] = 1, 0.3, 0.1, or 0.03 mg/kg, Cas9 mRNA (SEQ ID NO: 1) 1:1 by weight to guide, FIG. 26B-C
[6] = 1, 0.3, or 0.1 mg/kg, Cas9 mRNA (SEQ ID NO: 1) 1:2 by weight to guide, FIG. 28B-C
[7] = 1, 0.3, 0.1, or 0.03 mg/kg, Cas9 mRNA (SEQ ID NO: 1) 1:1 by weight to guide, FIG. 26A
[8] = 1, 0.3, or 0.1 mg/kg, Cas9 mRNA (SEQ ID NO: 1) 1:2 by weight to guide, FIG. 28A

B1: G000482: TTR sgRNA modified sequence, Human, SEQ ID No. 89; guide sequence of CR003365 (nucleic acid)
guide: mU*mG*mU*rArGrArArGrGrGrArUrArUrArCrArArArGrGrUrUrUrUrArGrAmGmCmUmAmGmAmAmAmUmAmGmCrArArGrUrUrArArArArUrArArGrGrCrUrArGrUrCrCrGrUrUrArUrCrAmAmCmUmUmGmAmAmAmAmAmGmUmGmGmCmAmCmCmGmAmGmUmCmGmGmUmGmCmU*mU*mU*mU
Serum human TTR levels, dose response [1, 3]: A dose response for both editing and serum TTR levels was evident | Liver editing, dose response [2, 4]: A dose response for both editing and serum TTR levels was evident

B2: G000480: TTR sgRNA modified sequence, Human, SEQ ID No. 87; guide sequence of CR003353 (nucleic acid)
guide: mA*mA*mA*rGrGrCrUrGrCrUrGrArUrGrArCrArCrCrUrGrUrUrUrUrArGrAmGmCmUmAmGmAmAmAmUmAmGmCrArArGrUrUrArArArArUrArArGrGrCrUrArGrUrCrCrGrUrUrArUrCrAmAmCmUmUmGmAmAmAmAmAmGmUmGmGmCmAmCmCmGmAmGmUmCmGmGmUmGmCmU*mU*mU*mU
Serum human TTR levels, dose response [1, 5]: A dose response for both editing and serum TTR levels was evident | Serum human TTR levels, dose response [1, 6]: A dose response for both editing and serum TTR levels was evident | Liver editing, dose response [2, 7]: A dose response for both editing and serum TTR levels was evident | Liver editing, dose response [2, 8]: A dose response for both editing and serum TTR levels was evident

B3: G000499: TTR sgRNA modified sequence, Human, SEQ ID No. 106; guide sequence of CR005303 (nucleic acid)
guide: mU*mG*mA*rArUrCrCrArArGrUrGrUrCrCrUrCrUrGrArGrUrUrUrUrArGrAmGmCmUmAmGmAmAmAmUmAmGmCrArArGrUrUrArArArArUrArArGrGrCrUrArGrUrCrCrGrUrUrArUrCrAmAmCmUmUmGmAmAmAmAmAmGmUmGmGmCmAmCmCmGmAmGmUmCmGmGmUmGmCmU*mU*mU*mU
Serum human TTR levels, dose response [1, 3]: A dose response for both editing and serum TTR levels was evident | Serum human TTR levels, dose response [1, 6]: A dose response for both editing and serum TTR levels was evident | Serum TTR(% TSS) [1]: 8.39 % TSS | Liver editing, dose response [2, 4]: A dose response for both editing and serum TTR levels was evident | Liver editing, dose response [2, 8]: A dose response for both editing and serum TTR levels was evident

B4: G000481: TTR sgRNA modified sequence, Human, SEQ ID No. 88; guide sequence of CR003345 (nucleic acid)
guide: mU*mC*mU*rArGrArArCrUrUrUrGrArCrCrArUrCrArGrGrUrUrUrUrArGrAmGmCmUmAmGmAmAmAmUmAmGmCrArArGrUrUrArArArArUrArArGrGrCrUrArGrUrCrCrGrUrUrArUrCrAmAmCmUmUmGmAmAmAmAmAmGmUmGmGmCmAmCmCmGmAmGmUmCmGmGmUmGmCmU*mU*mU*mU
Serum human TTR levels, dose response [1, 3]: A dose response for both editing and serum TTR levels was evident | Serum human TTR levels, dose response [1, 6]: A dose response for both editing and serum TTR levels was evident | Serum TTR(% TSS) [1]: 10.52 % TSS | Liver editing, dose response [2, 4]: A dose response for both editing and serum TTR levels was evident | Liver editing, dose response [2, 8]: A dose response for both editing and serum TTR levels was evident

B5: G000488: TTR sgRNA modified sequence, Human, SEQ ID No. 95; guide sequence of CR003346 (nucleic acid)
guide: mA*mA*mA*rGrUrUrCrUrArGrArUrGrCrUrGrUrCrCrGrGrUrUrUrUrArGrAmGmCmUmAmGmAmAmAmUmAmGmCrArArGrUrUrArArArArUrArArGrGrCrUrArGrUrCrCrGrUrUrArUrCrAmAmCmUmUmGmAmAmAmAmAmGmUmGmGmCmAmCmCmGmAmGmUmCmGmGmUmGmCmU*mU*mU*mU
Serum human TTR levels, dose response [1, 5]: A dose response for both editing and serum TTR levels was evident | Liver editing, dose response [2, 7]: A dose response for both editing and serum TTR levels was evident

B6: G000489: TTR sgRNA modified sequence, Human, SEQ ID No. 96; guide sequence of CR003344 (nucleic acid)
guide: mU*mU*mU*rGrArCrCrArUrCrArGrArGrGrArCrArCrUrGrUrUrUrUrArGrAmGmCmUmAmGmAmAmAmUmAmGmCrArArGrUrUrArArArArUrArArGrGrCrUrArGrUrCrCrGrUrUrArUrCrAmAmCmUmUmGmAmAmAmAmAmGmUmGmGmCmAmCmCmGmAmGmUmCmGmGmUmGmCmU*mU*mU*mU
Serum human TTR levels, dose response [1, 5]: A dose response for both editing and serum TTR levels was evident | Liver editing, dose response [2, 7]: A dose response for both editing and serum TTR levels was evident

B7: G000486: TTR sgRNA modified sequence, Human, SEQ ID No. 93; guide sequence of CR003339 (nucleic acid)
guide: mA*mC*mA*rCrArArArUrArCrCrArGrUrCrCrArGrCrArGrUrUrUrUrArGrAmGmCmUmAmGmAmAmAmUmAmGmCrArArGrUrUrArArArArUrArArGrGrCrUrArGrUrCrCrGrUrUrArUrCrAmAmCmUmUmGmAmAmAmAmAmGmUmGmGmCmAmCmCmGmAmGmUmCmGmGmUmGmCmU*mU*mU*mU
Serum human TTR levels, dose response [1, 3]: A dose response for both editing and serum TTR levels was evident | Serum human TTR levels, dose response [1, 6]: A dose response for both editing and serum TTR levels was evident | Liver editing, dose response [2, 4]: A dose response for both editing and serum TTR levels was evident | Liver editing, dose response [2, 8]: A dose response for both editing and serum TTR levels was evident

B8: G000502: TTR Cyno specific sgRNA modified sequence, SEQ ID No. 114; guide sequence of CR000689; cross homologous between mouse and cyno (nucleic acid)
guide: mA*mC*mA*rCrArArArUrArCrCrArGrUrCrCrArGrCrGrGrUrUrUrUrArGrAmGmCmUmAmGmAmAmAmUmAmGmCrArArGrUrUrArArArArUrArArGrGrCrUrArGrUrCrCrGrUrUrArUrCrAmAmCmUmUmGmAmAmAmAmAmGmUmGmGmCmAmCmCmGmAmGmUmCmGmGmUmGmCmU*mU*mU*mU
Serum human TTR levels, dose response [1, 5]: A dose response for both editing and serum TTR levels was evident | Serum human TTR levels, dose response [1, 6]: A dose response for both editing and serum TTR levels was evident | Liver editing, dose response [2, 7]: A dose response for both editing and serum TTR levels was evident | Liver editing, dose response [2, 8]: A dose response for both editing and serum TTR levels was evident

From patent US11795460B2, “Compositions and methods for TTR gene editing and treating ATTR amyloidosis” (Intellia Therapeutics, Inc., priority 2017, dated 2023)
